The record followed here is patent publication US9580731B2, “Methods of producing 7-carbon chemicals via c1 carbon chain elongation associated with coenzyme B synthesis” (INVISTA North America S.á r.l., priority 2012, dated 2017).

What all share (format): biochemical
Series [1] is described as follows: Carboxylate reductase activity assay, N7-acetyl-7-aminoheptanoate to N7-acetyl-7-aminoheptanal (NADPH consumption). As to conditions: 2 mM N7-acetyl-7-aminoheptanoate, enhanced by gene product of sfp, room temperature, 20 min, against empty vector control, FIG. 12. How it is done:
The activity of each of the N-terminal His-tagged carboxylate reductases of SEQ ID NOs: 3, 6, and 7 (see Examples 4, and FIG. 7) for converting N7-acetyl-7-aminoheptanoate to N7-acetyl-7-aminoheptanal was assayed in triplicate in a buffer composed of a final concentration of 50 mM HEPES buffer (pH=7.5), 2 mM N7-acetyl-7-aminoheptanoate, 10 mM MgCl2, 1 mM ATP, and 1 mM NADPH. The assays were initiated by adding purified carboxylate reductase and phosphopantetheine transferase or the empty vector control to the assay buffer containing the N7-acetyl-7-aminoheptanoate then incubated at room temperature for 20 min. The consumption of NADPH was monitored by absorbance at 340 nm.

The nature of series [2]: Carboxylate reductase activity assay, pimelate to pimelate semialdehyde (NADPH consumption). As to conditions: 2 mM pimelate, enhanced by gene product of sfp, room temperature, 20 min, against empty vector control, FIG. 10. On the procedure: A sequence encoding a HIS-tag was added to the genes from Segniliparus rugosus and Segniliparus rotundus that encode the carboxylate reductases of SEQ ID NOs: 4 and 7, respectively (see FIG. 7), such that N-terminal HIS tagged carboxylate reductases could be produced. Each of the modified genes was cloned into a pET Duet expression vector along with a sfp gene encoding a HIS-tagged phosphopantetheine transferase from Bacillus subtilis, both under the T7 promoter. Each expression vector was transformed into a BL21[DE3] E. coli host and the resulting recombinant E. coli strains were cultivated at 37° C. in a 250 mL shake flask culture containing 50 mL LB media and antibiotic selection pressure, with shaking at 230 rpm. Each culture was induced overnight at 37° C. using an auto-induction media.
The pellet from each induced shake flask culture was harvested via centrifugation. Each pellet was resuspended and lysed via sonication, and the cell debris was separated from the supernatant via centrifugation. […]
Enzyme activity assays (i.e., from pimelate to pimelate semialdehyde) were performed in triplicate in a buffer composed of a final concentration of 50 mM HEPES buffer (pH=7.5), 2 mM pimelate, 10 mM MgCl2, 1 mM ATP and 1 mM NADPH. […] The consumption of NADPH was monitored by absorbance at 340 nm.

Series [3] can be described thus: Thioesterase enzyme activity assay, pimeloyl-CoA to pimelate (release of CoA, Ellman's reagent). The following applies: 667 μM pimeloyl-CoA, 0.8 μM enzyme, pH 7.4, 37° C., 20 min, relative to empty vector control, FIG. 8. On the procedure: A sequence encoding an N-terminal His tag was added to the tesB gene from Escherichia coli that encodes a thioesterase (SEQ ID NO 1, see FIG. 7), such that an N-terminal HIS tagged thioesterase could be produced. The modified tesB gene was cloned into a pET15b expression vector under control of the T7 promoter. The expression vector was transformed into a BL21[DE3] E. coli host. The resulting recombinant E. coli strain was cultivated at 37° C. in a 500 mL shake flask culture containing 50 mL Luria Broth (LB) media and antibiotic selection pressure, with shaking at 230 rpm. The culture was induced overnight at 17° C. using 0.5 mM IPTG.
The pellet from the induced shake flask culture was harvested via centrifugation. The pellet was resuspended and lysed in Y-Per™ solution (ThermoScientific, Rockford, Ill.). The cell debris was separated from the supernatant via centrifugation. […]
The enzyme activity assay was performed in triplicate in a buffer composed of 50 mM phosphate buffer (pH=7.4), 0.1 mM Ellman's reagent, and 667 μM of pimeloyl-CoA (as substrate). […] The release of Coenzyme A was monitored by absorbance at 412 nm. The absorbance associated with the substrate only control, which contained boiled enzyme, was subtracted from the active enzyme assay absorbance and compared to the empty vector control.

B1: SEQ ID NO 6: Mycobacterium massiliense carboxylate reductase, Genbank Accession No. EIV11143.1 (protein)
chain: MTNETNPQQEQLSRRIESLRESDPQFRAAQPDPAVAEQVLRPGLHLSEAIAALMTGYAERPALGERARELVIDQDGRTTLRLLPRFDTTTYGELWSRTTSVAAAWHHDATHPVKAGDLVATLGFTSIDYTVLDLAIMILGGVAVPLQTSAPASQWTTILAEAEPNTLAVSIELIGAAMESVRATPSIKQVVVFDYTPEVDDQREAFEAASTQLAGTGIALETLDAVIARGAALPAAPLYAPSAGDDPLALLIYTSGSTGAPKGAMHSENIVRRWWIREDVMAGTENLPMIGLNFMPMSHIMGRGTLTSTLSTGGTGYFAASSDMSTLFEDMELIRPTALALVPRVCDMVFQRFQTEVDRRLASGDTASAEAVAAEVKADIRDNLFGGRVSAVMVGSAPLSEELGEFIESCFELNLTDGYGSTEAGMVFRDGIVQRPPVIDYKLVDVPELGYFSTDKPHPRGELLLKTDGMFLGYYKRPEVTASVFDADGFYMTGDIVAELAHDNIEIIDRRNNVLKLSQGEFVAVATLEAEYANSPVVHQIYVYGSSERSYLLAVVVPTPEAVAAAKGDAAALKTTIADSLQDIAKEIQLQSYEVPRDFIIEPQPFTQGNGLLTGIAKLARPNLKAHYGPRLEQMYAEIAEQQAAELRALHGVDPDKPALETVLKAAQALLGVSSAELAADAHFTDLGGDSLSALSFSDLLRDIFAVEVPVGVIVSAANDLGGVAKFVDEQRHSGGTRPTAETVHGAGHTEIRAADLTLDKFIDEATLHAAPSLPKAAGIPHTVLLTGSNGYLGHYLALEWLERLDKTDGKLIVIVRGKNAEAAYGRLEEAFDTGDTELLAHFRSLADKHLEVLAGDIGDPNLGLDADTWQRLADTVDVIVHPAALVNHVLPYNQLFGPNVVGTAEIIKLAITTKIKPVTYLSTVAVAAYVDPTTFDEESDIRLISAVRPIDDGYANGYGNAKWAGEVLLREAHDLCGLPVAVFRSDMILAHSRYTGQLNVPDQFTRLILSLIATGIAPGSFYQAQTTGERPLAHYDGLPGDFTAEAITTLGTQVPEGSEGFVTYDCVNPHADGISLDNFVDWLIEAGYPIARIDNYTEWFTRFDTAIRGLSEKQKQHSLLPLLHAFEQPSAAENHGVVPAKRFQHAVQAAGIGPVGQDGTTDIPHLSRRLIVKYAKDLEQLGLL
modifications: Mycobacterium massiliense
As for B1, in series [1], the “carboxylate reductase activity for converting N7-acetyl-7-aminoheptanoate to N7-acetyl-7-aminoheptanal (NADPH consumption, absorbance at 340 nm)” value is recorded as “accepted N7-acetyl-7-aminoheptanoate as substrate”.

B2: SEQ ID NO 4: Segniliparus rugosus carboxylate reductase, Genbank Accession No. EFV11917.1 (protein, listed as Segniliparus rugosus)
chain: MGDGEERAKRFFQRIGELSATDPQFAAAAPDPAVVEAVSDPSLSFTRYLDTLMRGYAERPALAHRVGAGYETISYGELWARVGAIAAAWQADGLAPGDFVATVGFTSPDYVAVDLAAARSGLVSVPLQAGASLAQLVGILEETEPKVLAASASSLEGAVACALAAPSVQRLVVFDLRGPDASESAADERRGALADAEEQLARAGRAVVVETLADLAARGEALPEAPLFEPAEGEDPLALLIYTSGSTGAPKGAMYSQRLVSQLWGRTPVVPGMPNISLHYMPLSHSYGRAVLAGALSAGGTAHFTANSDLSTLFEDIALARPTFLALVPRVCEMLFQESQRGQDVAELRERVLGGRLLVAVCGSAPLSPEMRAFMEEVLGFPLLDGYGSTEALGVMRNGIIQRPPVIDYKLVDVPELGYRTTDKPYPRGELCIRSTSLISGYYKRPEITAEVFDAQGYYKTGDVMAEIAPDHLVYVDRSKNVLKLSQGEFVAVAKLEAAYGTSPYVKQIFVYGNSERSFLLAVVVPNAEVLGARDQEEAKPLIAASLQKIAKEAGLQSYEVPRDFLIETEPFTTQNGLLSEVGKLLRPKLKARYGEALEARYDEIAHGQADELRALRDGAGQRPVVETVVRAAVAISGSEGAEVGPEANFADLGGDSLSALSLANLLHDVFEVEVPVRIIIGPTASLAGIAKHIEAERAGASAPTAASVHGAGATRIRASELTLEKFLPEDLLAAAKGLPAADQVRTVLLTGANGWLGRFLALEQLERLARSGQDGGKLICLVRGKDAAAARRRIEETLGTDPALAARFAELAEGRLEVVPGDVGEPKFGLDDAAWDRLAEEVDVIVHPAALVNHVLPYHQLFGPNVVGTAEIIRLAITAKRKPVTYLSTVAVAAGVEPSSFEEDGDIRAVVPERPLGDGYANGYGNSKWAGEVLLREAHELVGLPVAVFRSDMILAHTRYTGQLNVPDQFTRLVLSLLATGIAPKSFYQQGAAGERQRAHYDGIPVDFTAEAITTLGAEPSWFDGGAGFRSFDVFNPHHDGVGLDEFVDWLIEAGHPISRIDDHKEWFARFETAVRGLPEAQRQHSLLPLLRAYSFPHPPVDGSVYPTGKFQGAVKAAQVGSDHDVPHLGKALIVKYADDLKALGLL
In the case of B2, the “carboxylate reductase activity for converting pimelate to pimelate semialdehyde (NADPH consumption, absorbance at 340 nm)” value in series [2] was “accepted pimelate as substrate”.

B3: gene product of tesB: Escherichia coli thioesterase encoded by tesB, GenBank Accession No. AAA24665.1 (protein, listed as Escherichia coli)
chain: MSQALKNLLTLLNLEKIEEGLFRGQSEDLGLRQVFGGQVVGQALYAAKETVPEERLVHSFHSYFLRPGDSKKPIIYDVETLRDGNSFSARRVAAIQNGKPIFYMTASFQAPEAGFEHQKTMPSAPAPDGLPSETQIAQSLAHLLPPVLKDKFICDRPLEVRPVEFHNPLKGHVAEPHRQVWIRANGSVPDDLRVHQYLLGYASDLNFLPVALQPHGIGFLEPGIQIATIDHSMWFHRPFNLNEWLLYSVESTSASSARGFVRGEFYTQDGVLVASTVQEGVMRNHN
As for B3, in series [3], the “thioesterase activity for converting pimeloyl-CoA to pimelate (released CoA, absorbance at 412 nm)” value is recorded as “accepted pimeloyl-CoA as substrate”.
